To fix the notation:
B3: NTD-αB crystallin fusion protein (other)
chain: MGSRVQIRCRFRNSTRDIAIHHPWIRRPFFPFHSPSRLFDQFFGEHLLESDLFPTSTSLSPFYLRPPSFLRAPSWFDTGLSEMRLEKDRFSVNLDVKHFSPEELKVKVLGDVIEVHGKHEERQDEHGFISREFHRKYRIPADVDPLTITSSLSSDGVLTVNGPRKQVSGPERTIPITREEKPAVTAAPKK
notes: also called NTD-HSPB5; A B NgC

Data set [1] concerns the target B3. In words: subunit exchange: AlexaFluor-labeled NTD-αB crystallin with 10-fold molar excess of unlabeled αB crystallin at 37° C., size exclusion FPLC, fluorescence of fractions. In general terms: SEC sorts molecules by how far they enter the pores of the column.
Data set [2] deals with the molecule itself. The experiment in a line: size exclusion chromatography, self-association into oligomeric complexes.
Data set [3] deals with the molecule itself. The experiment in a line: size exclusion chromatography (Superose 6), self-association into oligomeric complexes.

B1: αB-crystallin (HSPB5), no transduction peptide (other)
chain: MDIAIHHPWIRRPFFPFHSPSRLFDQFFGEHLLESDLFPTSTSLSPFYLRPPSFLRAPSWFDTGLSEMRLEKDRFSVNLDVKHFSPEELKVKVLGDVIEVHGKHEERQDEHGFISREFHRKYRIPADVDPLTITSSLSSDGVLTVNGPRKQVSGPERTIPITREEKPAVTAAPKK
notes: also called native αB crystallin; unfused αB crystallin
Consider B1, for which the binding result in data set [1] is on record as “binds”.

B2: NTD-αA crystallin fusion protein (other)
chain: MGSRVQIRCRFRNSTRDVTIQHPWFKRTLGPFYPSRLFDQFFGEGLFEYDLLPFLSSTISPYYRQSLFRTVLDSGISEVRSDRDKFVIFLDVKHFSPEDLTVKVQDDFVEIHGKHNERQDDHGYISREFHRRYRLPSNVDQSALSCSLSADGMLTFCGPKIQTGLDATHAERAIPVSREEKPTSAPSS
notes: also called NTD modified α-crystallin subunit (αA)
On to B2, for which the binding result in data set [2] is listed as “binds”. B3: the binding result in data set [3] is on record as “binds”.

Values taken from patent US20140235553A1 (REGENTS OF THE UNIVERSITY OF COLORADO A BODY CORPRATE, published 2014).
